Where no end group is shown, it is not given here.
Tests used:
Type in all cases: physicochemical
[1] = Percentage of alpha-helix structure by ATR infrared spectroscopy; conditions: for percentage of alpha-helix structure, peptide, IR: free peptide; for percentage of alpha-helix structure, DMPC/peptide, IR: phospholipid-peptide (DMPC) complex
Excerpt: (§1) Table 1: corresponds to the percentage of alpha-helix structure in the free peptide and in the phospholipid-peptide (DMPC) complexes as determined by infrared spectroscopy (IR) and circular dichroism (CD).
Attenuated Total Reflection (ATR) infrared spectroscopy was used for the determination of the relative orientation of the apolipoprotein alpha-helical segments and of the phospholipid acyl chains as previously described for apo AI and apo AI-phospholipid complexes and for LDL (Vanloo et at., 1991). For these measurements, a 70 μL solution of 20 μg isolated complex in a 0.005M Tris-HCl buffer pH 8.4, was spread on a ATR Germanium crystal plate. Deuteration of the sample was performed by flushing N2, saturated with D2 O, in a sealed universal Perkin-Elmer sample holder, at room temperature for 3 hours, in order to avoid overlapping of the absorption bands for random and alpha-helical structures.
Spectra were recorded on a Perkin Elmer 1720X infrared spectrophotometer, using polarized incident light with a perpendicular (90°) and parallel (0°) orientation. A dichroic spectrum was obtained by substracting the spectrum recorded with polarized light at 0° from that at 90°. A positive deviation on the dichroic spectrum indicates a dipole preferentially oriented close to a normal to the plane, while a larger absorbance at 0° is indicative of a dipole oriented close to the Ge crystal plane. The angle between a normal to the Ge crystal and the dipole is obtained from the calculation of the dichroic ratio Ratr =A(90°)/A(0°), representing the ratio of the absorbances on the spectra recorded with polarized light at 90° and 0° . For each experiment, up to 15 scans were stored and averaged.

[2] = Percentage of alpha-helix structure by circular dichroism; conditions: for percentage of alpha-helix structure, peptide, CD: free peptide; for percentage of alpha-helix structure, DMPC/peptide, CD: phospholipid-peptide (DMPC) complex
Description: as §1
Circular dichroism spectra of the peptides and their complexes with lipids were measured on a Jasco 600 spectropolarimeter at 23° C. (Brasscur et at., 1991). Measurements were carried out at a protein concentration of 0.1 mg/ml in a 0.01M sodium phosphate buffer pH 7.4. Nine spectra were collected and averaged for each sample. The secondary structure was estimated according to the generalized inverse method of Compton and Johnson (Compton et at., 1986).

[3] = GdmCl denaturation followed by Trp maximal emission wavelength; conditions: phospholipid (DMPC) complex
Description: The stability of the DMPC-peptide complexes, was compared by following the maximal emission wavelength of the Trp residues after exposure to increasing quantities of GdmCl. For these experiments aliquots of a 8M GdmCl solution were added to the complex in the Tris-HCl buffer described above (see FIG. 3).

[4] = as above; conditions: free peptide or protein

Substance | percentage of alpha-helix structure, peptide, IR [1] [%] | percentage of alpha-helix structure, DMPC/peptide, IR [1] [%] | percentage of alpha-helix structure, peptide, CD [2] [%] | percentage of alpha-helix structure, DMPC/peptide, CD [2] [%] | midpoint of the GdmCl denaturation, phospholipid complex [3] | midpoint of the GdmCl denaturation transition, free peptide [4]
EWLKAFYKKVLEKLKELF [M1] | 29 | 50 | 20 | 46 | 4 M | around 0.3 M
EWLEAFYKKVLEKLKELF [M4] | 35 | 58 | 50 | 65 | 2.5 M | around 0.1 M
EWLKAEYEKVEEKLKELF [M3] | 43 | 61 | – | – | immediately | around 0.1 M
apo AI: native plasma apo AI purified from human plasma; major apoprotein constituent of HDL | 39 | 49 | 29 | 47 | 2.5 M | 1.3 M
EWLKAEYEKVLEKLKELF [M2] | 36 | 50 | 30 | 46 | 3 M | immediately
